The values below are quoted from earlier work in patent publication US6552168B1, “Gamma-ketoacid tetrapeptides as inhibitors of caspase-3” (Merck Frosst Canada & Co., priority 1998, dated 2003).

One data set addresses T1, caspase-1 (Homo sapiens, UniProt P29466).
T1 sequence (P29466 120-297 limits assumed): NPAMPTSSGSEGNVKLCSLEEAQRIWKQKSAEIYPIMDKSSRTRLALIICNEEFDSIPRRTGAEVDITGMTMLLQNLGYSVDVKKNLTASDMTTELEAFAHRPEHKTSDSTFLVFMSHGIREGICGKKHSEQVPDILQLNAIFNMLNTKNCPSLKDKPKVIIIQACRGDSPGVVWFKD
T1 sequence (P29466 317-404 limits assumed): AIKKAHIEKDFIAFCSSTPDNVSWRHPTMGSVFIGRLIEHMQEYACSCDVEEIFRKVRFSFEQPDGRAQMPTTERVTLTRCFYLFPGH

The target of a further data set is T2, caspase-3 (Homo sapiens, UniProt P42574).
T2 sequence (P42574 29-175 limits assumed): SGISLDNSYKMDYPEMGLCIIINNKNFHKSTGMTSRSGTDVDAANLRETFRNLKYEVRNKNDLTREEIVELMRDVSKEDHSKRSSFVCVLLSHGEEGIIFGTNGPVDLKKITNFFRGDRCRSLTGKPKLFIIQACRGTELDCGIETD
T2 sequence (P42574 176-277 limits assumed): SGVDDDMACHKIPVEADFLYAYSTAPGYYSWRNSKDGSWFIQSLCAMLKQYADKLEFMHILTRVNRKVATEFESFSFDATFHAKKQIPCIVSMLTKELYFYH

The term Ki denotes the dissociation constant of the complex between target and ligand, obtained from inhibition or displacement. Turning to Ac-YVAD-CHO, the Ki in the data set with caspase-1 is less than 0.001 µM; with caspase-3, 12 µM. Moreover, the “kon caspase-1” value with caspase-1 (slow-binding time-dependent inhibition) is 380000 M⁻¹ s⁻¹.
